Data taken from patent US11597760 (dated 2023).

Experiments:
[1] = target: human C5 (human); assay: SPR, pH 5.8, 37C
[2] = target: human C5 (human); assay: SPR, pH 7.4, 37C
[3] = target: human C5 (human); assay: SPR, pH 7.4, 37C; remark: listed apart in the source
[4] = target: human C5 (human); assay: SPR, pH 5.8, 37C; remark: listed apart in the source

Binder	Kd [1] [nM]	Kd [2] [nM]	Kd [3] [nM]	Kd [4] [nM]
305LO16-SG422 (antibody, V domains shown) VH: QVQLVESGGGLVQPGRSLRLSCAASGFTVHSSYYMAWVRQAPGKGLEWVGAIFTGSGAEYKAEWVKGRFTISRDNSKNTLYLQMNSLRAEDTAVYYCASDAGYDYPTHAMHYWGRGTLVTVSS VL: DIQMTQSPSSLSASVGDRVTITCRASQGISSSLAWYQQKPGKAPKLLIYGASETESGVPSRFSGSGSGTDFTLTISSLQPEDFATYYCQNTKVGSSYGNTFGGGTKVEIK			0.321	79.5
CFA0307 (antibody, V domains shown) VH: QSLEESGGGLVKPGASLTLTCKASGIDFSNFYYICWVRQAPGKGLDLIACIYTVSGYTYYASWAKGRLTISKTSSTTVTLQMTSLTAADTATYFCARDLHAGITNLWGPGTLVTVSS VL: AIEMTQTPFSVSAAVGGTVTIKCQASQNIYSNLAWYQQKPGQRPKLLIYGASNLESGVPSRFKGSGSGTEYTLTISDLECADAATYYCLQGYSYSNVDDAFGGGTEVVVK	164	8.13		
CFA0672 (antibody, V domains shown) VH: QSVEESGGRLVTPGTPLTLTCTASGFSLSGNAINWVRQAPGKGLEWIGCIYTGSDTTYYATWAKGRFTISKTSTTVDLKIASPTTEDTATYFCARGSGLWGPGTLVTVSS VL: DVVMTQTPASVSAPVGGTVTIKCQASQNIYSLLAWYQQKPGQPPKLLIYHTSDLASGVPSRFRGSGSGTEFTLTISDLECADAATYYCQCTAYGSSDVGGTFGGGTTVVVE	138	0.351		
CFA0538 (antibody, V domains shown) VH: QSVEESGGRLVTPGTPLTLTCTASGFSLSSYYMNWVRQAPGKGLEWIGMIYGSGATYYASWAKGRFTISKTSSTTVDLKMTSLTTEDTATYFCARQIYSGDNNDNFWGPGTLVTVSS VL: AYDMTQTPASVEVAVGGTVTINCQASESISNWLAWYQQKPGQRPKLLIYRASTLASGVSSRFKGSGSGTQFTLTISGVECDDAATYYCQQDYSSSNVDNTFGGGTTVVVE	246	3.91		
CFA0501 (antibody, V domains shown) VH: QSVEESGGRLVTPGTPLTLTCTASGFSLSSYYMNWVRQAPGKGLEWIGMIYGSGATYYASWAKGRFTISKTSSTTVDLKMTSLTTEDTATYFCARQIYSGDNNDNFWGPGTLVTVSS VL: AYDMTQTPASVEVAVGGTVTINCQASESISNWLAWYQQKPGQRPKLLIYRASTLASGVSSRFKGSGSGTQFTLTISGVECDDAATYYCQQDYSSSNVDNTFGGGTKVVVE	174	3.56		
305LO20-SG422 (antibody, V domains shown) VH: QVQLVESGGGLVQPGGSLRLSCAASGFTVHSSYYMAWVRQAPGKGLEWVGAIFTGSGAEYKAEWAKGRVTISKDTSKNQVVLTMTNMDPVDTATYYCASDAGYDYPTHAMHYWGQGTLVTVSS VL: DIQMTQSPSSLSASVGDRVTITCRASQGISSSLAWYQQKPGQAPRLLIYGASETESGVPSRFSGSGSGTDFTLTISSLQPEDFATYYCQNTKVGSSYGNTFGGGTKVEIK			0.349	59.9
305LO23-SG115 (antibody, V domains shown) VH: QVQLVESGGGLVQPGGSLRLSCAASGFTVHSSYYMAWVRQAPGKGLEWVSGIFTGSGATYKAEWAKGRVTISKDTSKNQVVLTMTNMDPVDTATYYCASDAGYDYPTHAMHYWGQGTLVTVSS VL: DIQMTQSPSSLSASVGDRVTITCRASQGISSSLAWYQQKPGQAPRLLIYGASTTQSGVPSRFSGSGSGTDFTLTISSLQPEDFATYYCQNTKVGSSYGNTFGGGTKVEIK			0.277	64.1
305LO20-SG115 (antibody, V domains shown) VH: QVQLVESGGGLVQPGGSLRLSCAASGFTVHSSYYMAWVRQAPGKGLEWVGAIFTGSGAEYKAEWAKGRVTISKDTSKNQVVLTMTNMDPVDTATYYCASDAGYDYPTHAMHYWGQGTLVTVSS VL: DIQMTQSPSSLSASVGDRVTITCRASQGISSSLAWYQQKPGQAPRLLIYGASETESGVPSRFSGSGSGTDFTLTISSLQPEDFATYYCQNTKVGSSYGNTFGGGTKVEIK			0.324	58.1

More lines, in order of falling Kd [1], values ahead:

Kd [1] [nM]	Kd [2] [nM]	Kd [3] [nM]	Kd [4] [nM]	Binder
82.1	5.93			CFA0599 (antibody, V domains shown) VH: QSVEESGGRLVTPGTPLTLTCTVSGLSLSDNTMTWVRQAPGKGLEWIGIISFGGDAYYASWAKGRFPISKTSTTVDLRITSPTTEDTATYFCARVGAGNIFWYFDLWGPGTLVTVSS VL: AYDMTQTPASVEVSVGGTVTIKCQASESIYSALAWYQQKPGQPPKLLIYSASTLASGVPSRFKGSGSGTEYTLTISDLECADAATYYCQQYYSSTNVHNSFGGGTTVVVE
75.2	8.99			CFA0366 (antibody, V domains shown) VH: QSLEESGGDLVKPGASLSLTCTAAGLDFSSSYYMCWVRQAPGKGLEWIACIYAGSSGIIYYANWAKGRFTISRPSSTTVTLQMTSLTAADTATYFCATYPTYGDGGHAFNLWGPGTLVTVSS VL: AQVLTQTPSSVSAAVGGTVTINCQSSQSVYSSDYLSWYQQKPGQPPKLLIYEASKLASGVPPRFSGSGSGTQFTLTISGVQCDDAATYYCQGTYYSSGWYFAFGGGTEVVVK
33.3	1.71			CFA0666 (antibody, V domains shown) VH: QSVEESGGRLVTPGTPLTLTCTVSGFSLSTYAMGWVRQAPGKGLEWIGTIDTGDNSFYANWAKGRFTISKTSTTVDLKITSPTAEDTATYFCARNDGSVYNLFNLWGPGTLVTVSS VL: DVVMTQTPASVSAAVGGTVTIKCQASENIYSALSWYQQKPGLRPRLLIYYASTLASGVPSRFKGSRSGTEFTLTISDLECADAATYYCQQYYDINSVDNTFGGGTKVVVE
17	1.08			CFA0675 (antibody, V domains shown) VH: QSVEESGGRLVTPGTPLTLTCTVSGFSLSTYAMGWVRQAPGKGLEWIGTIDTGDNSFYANWAKGRFTISRTSTTVDLKITSPTAEDTATYFCARNDGSVYNLFNLWGPGTLVTVSS VL: DVVMTQTPASVSAAVGGTVTIKCQASENIYSALSWYQQKPGLRPRLLIYYASTLASGVPSRFKGSRSGTEFTLTISDLECADAASYYCQQYYDINSVDNTFGGGTKVVVE
14	0.471			305LO5 (antibody, V domains shown) VH: QVQLVESGGGLVQPGGSLRLSCAASGFTSHSSYYVAWVRQAPGKGLEWVGAIYTGSGATYKASWAKGRFTISKDTSKNQVVLTMTNMDPVDTATYYCASDGGYDYPTHAMHYWGQGTLVTVSS VL: DVVMTQSPSSLSASVGDRVTITCQASQNIGSSLAWYQQKPGQAPRLLIYGASKTHSGVPSRFSGSGSGTDFTLTISSLQPEDVATYYCQSTKVGSSYGNHFGGGTKVEIK
0.184	0.122			CFA0330 (antibody, V domains shown) VH: QSLEESGGDLVEPGASLTLTCTASGFSWNSGYDMCWVRQAPGKGLEWIACIYTGSSANTAYANWAKGRFTISKTSSTTVTLQMTGLTAADTATYFCARHDDYFFDLWGPGTLVTVSS VL: DVVMTQTPASVSESVGGTVTINCQASQSIGNNLAWYQQKPGQPPKLLIYDASNLASGVPSRFKGSRSGTEPTLTNTLTISGVQCADVATYYCQSGWYGNSYVAAFGGGTEVVVK
0.0595	0.155			CFA0341 (antibody, V domains shown) VH: QSVEESGGRLVTPGTPLTLTCTVSGIDLSSYTMGWVRQAPGKGLECIGYIHSFGSTYYASWAKGRFTISKTSTTVDLEITSPTTEDTATYFCARDVGGSSGWDLWGQGTLVTVSS VL: DVVMTQTPSSVSAAVGGTVTIKCQASENIYSNLAWYQQKPGQPPKRLIYDASDLASGVPSRFSGSGYGTQFTLTISGVQCEDAATYYCQANYDSTSSSFGNVFGGGTEVVVK
